Positions count from the first letter of the chain named. Where “and” joins values, the source holds several entries; their conditions need not be identical. Equal values may be shown once.
B1: Ab1119/Ab480 (LC Ab1119, HC Ab480) anti-CD47 antibody (antibody, V domains shown)
VH: QMQLVQSGAEVKKPGSSVKVSCKASGFNIKDYYLHWVRQAPGKGLEWMGWIDPDQGDTEYAQKFQGRVTITRDRSTSTAYMELRSLRAEDTAVYYCNAAYGSSSYPMDYWGQGTLVTVSS
VL: NIQMTQSPSSLSASVGDRVTITCRASQDIHRYLSWFQQKPGKVPKHLIYRANRLVSGVPSRFSGSGSGTEFTLTISSLQPEDFATYYCLQYDEFPYTFGGGTKVEIK
notes: Variant of AbParental
B2: Ab356/Ab1127 (HC Ab356, LC Ab1127) anti-CD47 antibody (antibody, V domains shown)
VH: B1 VH with L115T
VL: B1 VL with A51E, N52S, L54F, S56D
notes: FR and CDR L2 variant of AbParental; The label order is HC/LC although the head says 'LC/HC'; r460 is used
B3: Ab356/Ab1121 (HC Ab356, LC Ab1121) anti-CD47 antibody (antibody, V domains shown)
VH: B1 VH with L115T
VL: B1 VL with A51Y, N52I, L54F, S56D
notes: FR and CDR L2 variant of AbParental; The label order is HC/LC although the head says 'LC/HC'; the row in running number order (r442) is used
B4: Ab480/Ab1122 (HC Ab480, LC Ab1122) anti-CD47 antibody (antibody, V domains shown)
VH: B1 VH
VL: B1 VL with A51Y, N52E, L54F, S56D
notes: FR and CDR L2 variant of AbParental; The label order is HC/LC although the head says 'LC/HC'; r445 is used
B5: Ab480/Ab1127 (HC Ab480, LC Ab1127) anti-CD47 antibody (antibody, V domains shown)
VH: B1 VH
VL: B1 VL with A51E, N52S, L54F, S56D
notes: as for B2
B6: Ab356/Ab1120 (HC Ab356, LC Ab1120) anti-CD47 antibody (antibody, V domains shown)
VH: B1 VH with L115T
VL: B1 VL with A51Y, N52V, L54F, S56D
notes: FR and CDR L2 variant of AbParental
B7: Ab356/Ab1122 (HC Ab356, LC Ab1122) anti-CD47 antibody (antibody, V domains shown)
VH: B1 VH with L115T
VL: B1 VL with A51Y, N52E, L54F, S56D
notes: as for B4
B8: Ab1119/Ab356 (LC Ab1119, HC Ab356) anti-CD47 antibody (antibody, V domains shown)
VH: B1 VH with L115T
VL: B1 VL
notes: Variant of AbParental
B9: Ab480/Ab1120 (HC Ab480, LC Ab1120) anti-CD47 antibody (antibody, V domains shown)
VH: B1 VH
VL: B1 VL with A51Y, N52V, L54F, S56D
notes: as for B6
B10: Ab480/Ab1121 (HC Ab480, LC Ab1121) anti-CD47 antibody (antibody, V domains shown)
VH: B1 VH
VL: B1 VL with A51Y, N52I, L54F, S56D
notes: FR and CDR L2 variant of AbParental; The label order is HC/LC although the head says 'LC/HC'; r442 is used
B11: AbParental, parental anti-CD47 antibody (antibody, human IgG4 S228P, kappa, V domains shown)
VH: B1 VH with P14T, K43Q, G44A, G66D, T76M, R84S, A88S, V93M, L115T
VL: NIQMTQSPSAMSASVGDRVTITCKASQDIHRYLSWFQQKPGKVPKHLIYRANRLVSGVPSRFSGSGSGTEFTLTISSLQPEDFATYYCLQYDEFPYTFGGGTKVEIKR
notes: Parental anti-CD47 antibody, described in WO 2013/119714 A1; also called Parental LC-HC; parental antibody
B12: Ab495/Ab356 (LC Ab495, HC Ab356) anti-CD47 antibody (antibody, V domains shown)
VH: B1 VH with L115T
VL: B1 VL with R24K, F36Y, V43A
notes: Framework variant of AbParental
B13: Ab482/Ab387 (LC Ab482, HC Ab387) anti-CD47 antibody (antibody, V domains shown)
VH: B1 VH with A88S
VL: B1 VL with L11M, R24K
notes: as for B12
B14: Ab1119/Ab170 (LC Ab1119, HC Ab170) anti-CD47 antibody (antibody, V domains shown)
VH: B1 VH with A88S, L115T
VL: B1 VL
notes: Variant of AbParental
B15: Ab1119/Ab387 (LC Ab1119, HC Ab387) anti-CD47 antibody (antibody, V domains shown)
VH: B1 VH with A88S
VL: B1 VL
notes: Variant of AbParental
B16: Ab495/Ab480 (LC Ab495, HC Ab480) anti-CD47 antibody (antibody, V domains shown)
VH: B1 VH
VL: B1 VL with R24K, F36Y, V43A
notes: as for B12

The binders below were run against T1, CD47 on CCRF-CEM cells (human, UniProt Q08722 19-323) (assay: flow cytometry on antibody-opsonized CCRF-CEM cells, anti-human Alexa 647 secondary, median fluorescence, sigmoidal fit; Donor 2).
T1 construct: Target is CD47 carried by the CD47-positive cell line CCRF-CEM; also called Cluster of Differentiation 47; integrin-associated protein
Description: (§1) Phagocytosis was assayed by serum starving the macrophages in incomplete AIM V media for two hours. During this incubation period, target cells (CCRF-CEM) from two donors (donor 1 and donor 2) were labeled with CSFE (Invitrogen, #C34554) at […] for 15 minutes at room temperature. Cells were rinsed twice with PBS (Hyclone, #SH30028.02) and resuspended at 8×10⁵/mL in AIM V media. Antibody dilutions were prepared at 0.01 ug/ml to 10 ug/ml in half log dilutions and then incubated with the target cell line for 10 minutes at room temperature (a small portion is retained for flow cytometric analysis/cell binding), after which 100 μL of target cell/antibody suspension was added to the macrophage plates. Samples were treated in triplicate and with appropriate isotype controls.
(§2) Samples were incubated for 30 minutes at room temperature, rinsed 2× and then resuspended in FACS buffer and analyzed on the Attune. The EC50 values refer to the concentration that gives half the maximum binding measured as median fluorescent intensity, and was determined by non-linear fit of a sigmoidal dose response within the GraphPad Prism software.

T1 sequence (Q08722 19-323): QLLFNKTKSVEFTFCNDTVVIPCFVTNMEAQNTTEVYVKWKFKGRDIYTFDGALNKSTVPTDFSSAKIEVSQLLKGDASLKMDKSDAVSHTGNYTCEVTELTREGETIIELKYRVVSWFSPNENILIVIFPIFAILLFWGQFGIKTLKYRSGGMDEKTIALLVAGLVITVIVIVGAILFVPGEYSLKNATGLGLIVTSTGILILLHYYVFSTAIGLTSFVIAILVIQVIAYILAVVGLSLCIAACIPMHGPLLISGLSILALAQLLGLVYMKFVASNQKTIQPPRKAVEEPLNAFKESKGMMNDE

Compared with B1, B2 is 2.1-fold higher in EC50: 0.07 µg/mL for the first, 0.15 µg/mL for the second.

B3 and B4 are within 1.5-fold of each other in EC50: 0.16 µg/mL for the first, 0.17 µg/mL for the second.

B5 and B6 are within 1.5-fold of each other in EC50: 0.2 µg/mL for the first, 0.16 µg/mL for the second.

B7 and B8 are within 1.5-fold of each other in EC50: 0.22 µg/mL for the first, 0.16 µg/mL for the second.

B9 and B10 are the same in EC50: 0.17 µg/mL for the first, 0.17 µg/mL for the second.

Each binder was assayed against T1, CD47 on CCRF-CEM cells (assay: flow cytometry on antibody-opsonized CCRF-CEM cells, anti-human Alexa 647 secondary, median fluorescence, sigmoidal fit; Donor 1).
Description: as §1, §2

First: B1
Second: B2
The EC50 of the first is 2.8-fold lower: 0.04 µg/mL for the first, 0.11 µg/mL for the second.

B3 and B4 are within 1.5-fold of each other in EC50: 0.19 µg/mL for the first, 0.16 µg/mL for the second.

First: B5
Second: B6
The EC50 of the first is 2.1-fold lower: 0.08 µg/mL for the first, 0.17 µg/mL for the second.

Going from B7 to B8, the EC50 falls from 0.17 µg/mL to 0.06 µg/mL (2.8-fold).

Compared with B9, B10 is 1.9-fold lower in EC50: 0.33 µg/mL for the first, 0.17 µg/mL for the second.

What follows are binders tested against T1, CD47 on CCRF-CEM cells (assay: cell-based or functional assay).

With B1 the “Phagocytosis EC50 (ug/mL), Donor 1” value was 0.44 µg/mL and 0.19 µg/mL.
For B8, the “Phagocytosis EC50 (ug/mL), Donor 1” value was 0.36 µg/mL and 0.31 µg/mL and 0.14 µg/mL.

In the case of B1, the “Phagocytosis EC50 (ug/mL), Donor 2” value is reported as 0.71 µg/mL and 0.24 µg/mL.
In the case of B15, the “Phagocytosis EC50 (ug/mL), Donor 2” value is reported as 0.52 µg/mL and 0.21 µg/mL.

Going from B11 to B2, the “Phagocytosis EC50 (ug/mL), Donor 1” value rises from 0.38 µg/mL to 0.66 µg/mL (1.7-fold).

B3 and B12 are within 1.5-fold of each other in “Phagocytosis EC50 (ug/mL), Donor 1” value: 0.48 µg/mL for the first, 0.68 µg/mL for the second.

First: B13
Second: B4
The “Phagocytosis EC50 (ug/mL), Donor 1” value of the first is 7.3-fold lower: 0.15 µg/mL for the first, 1.1 µg/mL for the second.

First: B5
Second: B6
The “Phagocytosis EC50 (ug/mL), Donor 1” value of the first is 2.8-fold higher: 1.88 µg/mL for the first, 0.68 µg/mL for the second.

Going from B7 to B14, the “Phagocytosis EC50 (ug/mL), Donor 1” value falls from 1.07 µg/mL to 0.15 µg/mL (7.1-fold).

B16 and B9 are within 1.5-fold of each other in “Phagocytosis EC50 (ug/mL), Donor 1” value: 0.59 µg/mL for the first, 0.73 µg/mL for the second.

For B10, the “Phagocytosis EC50 (ug/mL), Donor 1” value was 0.43 µg/mL.

Compared with B11, B2 is 7.4-fold higher in “Phagocytosis EC50 (ug/mL), Donor 2” value: 0.13 µg/mL for the first, 0.96 µg/mL for the second.

B3 and B12 are within 1.5-fold of each other in “Phagocytosis EC50 (ug/mL), Donor 2” value: 1.29 µg/mL for the first, 0.92 µg/mL for the second.

Compared with B13, B4 is 11-fold higher in “Phagocytosis EC50 (ug/mL), Donor 2” value: 0.17 µg/mL for the first, 1.84 µg/mL for the second.

B5 and B6 are within 1.5-fold of each other in “Phagocytosis EC50 (ug/mL), Donor 2” value: 1.95 µg/mL for the first, 1.82 µg/mL for the second.

Going from B7 to B14, the “Phagocytosis EC50 (ug/mL), Donor 2” value falls from 1.83 µg/mL to 0.62 µg/mL (3-fold).

Going from B16 to B9, the “Phagocytosis EC50 (ug/mL), Donor 2” value rises from 0.94 µg/mL to 2.01 µg/mL (2.1-fold).

B10 was tested, and the “Phagocytosis EC50 (ug/mL), Donor 2” value was 1.42 µg/mL.

These binders were tested against T1, CD47 on CCRF-CEM cells (assay: flow cytometry on antibody-opsonized CCRF-CEM cells, anti-human Alexa 647 secondary, median fluorescence, sigmoidal fit).
Description: as §1, §2

B1 and B11 are within 1.5-fold of each other in EC50: 0.012 µg/mL for the first, 0.014 µg/mL for the second.

Going from B12 to B13, the EC50 falls from 0.035 µg/mL to 0.014 µg/mL (2.5-fold).

Going from B14 to B16, the EC50 rises from 0.015 µg/mL to 0.066 µg/mL (4.4-fold).

With B8 the EC50 was 0.014 µg/mL and 0.035 µg/mL.
With B15 the EC50 was 0.011 µg/mL and 0.014 µg/mL.
